According to PMC11826995 (2025):

Assays:
HSPB6 phosphopeptide = molecular target: T1, HSPB6 phosphopeptide (Homo sapiens, UniProt O14558); experiment: fluorescence anisotropy
T1 chain: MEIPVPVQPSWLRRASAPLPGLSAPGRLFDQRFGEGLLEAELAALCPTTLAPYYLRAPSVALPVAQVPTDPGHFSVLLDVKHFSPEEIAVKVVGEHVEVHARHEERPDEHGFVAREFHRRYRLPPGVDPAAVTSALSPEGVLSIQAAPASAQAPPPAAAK

[1] = molecular target: MED1 DRIP-2 coregulator peptide (Homo sapiens, UniProt Q15648); experiment: anisotropy
[2] = molecular target: EP300 coregulator peptide (Homo sapiens, UniProt Q09472); experiment: fluorescence anisotropy
EP300 coregulator peptide, sequence (Q09472 2-2414): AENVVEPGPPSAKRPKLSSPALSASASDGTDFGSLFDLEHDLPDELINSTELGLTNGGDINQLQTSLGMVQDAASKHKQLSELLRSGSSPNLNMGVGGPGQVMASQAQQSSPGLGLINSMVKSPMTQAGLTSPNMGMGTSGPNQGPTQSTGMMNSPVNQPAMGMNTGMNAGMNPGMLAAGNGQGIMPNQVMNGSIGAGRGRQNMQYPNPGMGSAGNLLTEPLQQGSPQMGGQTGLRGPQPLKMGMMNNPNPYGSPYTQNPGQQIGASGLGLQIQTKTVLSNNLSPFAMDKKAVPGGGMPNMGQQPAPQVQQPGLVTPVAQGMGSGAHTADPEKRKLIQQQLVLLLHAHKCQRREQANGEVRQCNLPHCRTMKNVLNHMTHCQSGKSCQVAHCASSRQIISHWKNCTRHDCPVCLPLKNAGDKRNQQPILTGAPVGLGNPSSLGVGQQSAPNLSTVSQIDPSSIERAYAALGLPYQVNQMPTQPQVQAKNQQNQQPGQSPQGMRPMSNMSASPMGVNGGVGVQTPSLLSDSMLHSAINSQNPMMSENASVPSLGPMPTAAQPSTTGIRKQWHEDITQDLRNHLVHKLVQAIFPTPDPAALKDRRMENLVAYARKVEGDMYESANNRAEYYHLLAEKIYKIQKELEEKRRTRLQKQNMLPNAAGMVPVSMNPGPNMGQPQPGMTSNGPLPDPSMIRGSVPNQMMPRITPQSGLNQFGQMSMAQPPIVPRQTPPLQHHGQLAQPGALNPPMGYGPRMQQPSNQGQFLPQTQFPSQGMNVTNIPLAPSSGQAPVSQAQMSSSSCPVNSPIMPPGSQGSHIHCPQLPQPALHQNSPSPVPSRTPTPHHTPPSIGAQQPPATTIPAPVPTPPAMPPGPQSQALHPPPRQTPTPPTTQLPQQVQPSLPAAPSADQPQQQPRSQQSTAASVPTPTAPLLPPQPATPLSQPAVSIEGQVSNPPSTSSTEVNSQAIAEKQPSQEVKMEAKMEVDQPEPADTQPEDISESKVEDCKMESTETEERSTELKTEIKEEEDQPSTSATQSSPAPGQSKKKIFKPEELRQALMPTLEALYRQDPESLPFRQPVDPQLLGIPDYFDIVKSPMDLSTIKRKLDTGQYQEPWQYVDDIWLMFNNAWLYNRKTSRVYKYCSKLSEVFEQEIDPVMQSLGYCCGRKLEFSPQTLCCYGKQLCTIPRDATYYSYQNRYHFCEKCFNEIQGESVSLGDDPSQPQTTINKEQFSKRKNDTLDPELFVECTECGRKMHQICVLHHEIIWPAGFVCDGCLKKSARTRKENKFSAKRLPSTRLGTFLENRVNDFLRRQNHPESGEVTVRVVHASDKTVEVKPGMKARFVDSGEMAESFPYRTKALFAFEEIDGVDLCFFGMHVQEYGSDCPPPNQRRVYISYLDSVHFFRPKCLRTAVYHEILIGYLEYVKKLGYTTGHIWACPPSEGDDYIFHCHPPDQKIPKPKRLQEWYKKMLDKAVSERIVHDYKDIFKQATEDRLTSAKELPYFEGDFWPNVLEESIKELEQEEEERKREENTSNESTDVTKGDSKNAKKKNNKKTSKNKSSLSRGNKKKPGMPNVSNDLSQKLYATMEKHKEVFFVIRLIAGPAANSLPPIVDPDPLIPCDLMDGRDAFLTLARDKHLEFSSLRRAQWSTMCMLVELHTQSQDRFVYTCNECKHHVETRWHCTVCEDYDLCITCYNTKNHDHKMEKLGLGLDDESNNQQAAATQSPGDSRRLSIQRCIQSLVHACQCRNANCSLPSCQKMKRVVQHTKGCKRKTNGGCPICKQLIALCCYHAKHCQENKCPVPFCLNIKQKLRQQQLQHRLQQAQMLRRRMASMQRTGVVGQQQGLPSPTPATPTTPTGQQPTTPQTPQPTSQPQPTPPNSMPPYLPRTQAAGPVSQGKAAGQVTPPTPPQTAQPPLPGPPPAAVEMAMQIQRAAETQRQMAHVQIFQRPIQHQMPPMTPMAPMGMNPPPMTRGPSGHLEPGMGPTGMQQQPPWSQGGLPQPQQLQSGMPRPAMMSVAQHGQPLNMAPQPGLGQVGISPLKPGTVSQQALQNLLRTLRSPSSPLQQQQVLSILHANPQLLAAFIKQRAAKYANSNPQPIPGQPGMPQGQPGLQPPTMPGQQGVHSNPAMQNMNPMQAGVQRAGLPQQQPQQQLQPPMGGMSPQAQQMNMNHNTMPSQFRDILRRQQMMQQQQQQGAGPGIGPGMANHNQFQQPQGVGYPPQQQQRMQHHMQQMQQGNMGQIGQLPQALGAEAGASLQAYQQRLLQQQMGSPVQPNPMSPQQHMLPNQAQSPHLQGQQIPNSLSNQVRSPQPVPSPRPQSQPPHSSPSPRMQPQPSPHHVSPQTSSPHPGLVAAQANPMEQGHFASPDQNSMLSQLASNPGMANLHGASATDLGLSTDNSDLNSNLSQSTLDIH

MED1 DRIP-2 coregulator peptide, sequence (Q15648 whole entry): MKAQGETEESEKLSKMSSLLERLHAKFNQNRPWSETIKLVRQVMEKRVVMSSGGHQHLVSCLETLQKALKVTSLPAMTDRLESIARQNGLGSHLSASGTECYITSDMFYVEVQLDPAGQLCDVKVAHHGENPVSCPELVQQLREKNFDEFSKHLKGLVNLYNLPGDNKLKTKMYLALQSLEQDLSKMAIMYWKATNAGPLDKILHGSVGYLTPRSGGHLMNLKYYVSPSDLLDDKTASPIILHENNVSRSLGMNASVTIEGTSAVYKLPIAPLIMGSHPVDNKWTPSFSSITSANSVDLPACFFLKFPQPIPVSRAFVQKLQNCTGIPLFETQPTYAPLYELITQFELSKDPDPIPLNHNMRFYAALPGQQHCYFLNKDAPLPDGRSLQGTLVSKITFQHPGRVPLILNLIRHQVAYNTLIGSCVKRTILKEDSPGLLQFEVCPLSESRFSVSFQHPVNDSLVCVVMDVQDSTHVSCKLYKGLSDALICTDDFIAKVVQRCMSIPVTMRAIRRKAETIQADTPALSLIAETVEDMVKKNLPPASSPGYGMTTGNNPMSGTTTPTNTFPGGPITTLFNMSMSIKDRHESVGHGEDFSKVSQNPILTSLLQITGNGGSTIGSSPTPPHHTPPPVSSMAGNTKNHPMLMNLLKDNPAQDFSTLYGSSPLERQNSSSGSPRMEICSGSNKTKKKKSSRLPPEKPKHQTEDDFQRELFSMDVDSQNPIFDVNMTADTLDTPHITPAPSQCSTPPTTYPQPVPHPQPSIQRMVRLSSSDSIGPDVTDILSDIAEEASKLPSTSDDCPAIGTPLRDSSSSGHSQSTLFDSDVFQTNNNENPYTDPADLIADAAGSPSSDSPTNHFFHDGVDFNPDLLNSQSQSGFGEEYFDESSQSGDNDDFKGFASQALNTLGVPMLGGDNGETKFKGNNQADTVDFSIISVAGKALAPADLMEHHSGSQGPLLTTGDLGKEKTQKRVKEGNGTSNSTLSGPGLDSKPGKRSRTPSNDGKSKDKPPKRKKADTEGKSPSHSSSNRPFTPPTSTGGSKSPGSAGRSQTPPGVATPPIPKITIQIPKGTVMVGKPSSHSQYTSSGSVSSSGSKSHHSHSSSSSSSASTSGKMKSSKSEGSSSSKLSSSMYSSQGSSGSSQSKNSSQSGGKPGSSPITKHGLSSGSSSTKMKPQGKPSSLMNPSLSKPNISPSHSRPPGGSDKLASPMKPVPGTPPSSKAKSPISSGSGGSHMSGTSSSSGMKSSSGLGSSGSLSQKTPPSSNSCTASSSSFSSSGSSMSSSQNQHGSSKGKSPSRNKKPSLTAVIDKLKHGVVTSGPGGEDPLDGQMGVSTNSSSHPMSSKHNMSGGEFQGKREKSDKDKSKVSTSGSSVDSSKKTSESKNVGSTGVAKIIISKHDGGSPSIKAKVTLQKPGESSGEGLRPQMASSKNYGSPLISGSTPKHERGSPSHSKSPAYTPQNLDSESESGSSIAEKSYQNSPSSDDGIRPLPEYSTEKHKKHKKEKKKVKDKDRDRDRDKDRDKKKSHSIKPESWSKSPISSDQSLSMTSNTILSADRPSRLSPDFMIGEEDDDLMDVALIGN

B1: 14-3-3σ (protein)
chain: MERASLIQKAKLAEQAERYEDMAAFMKGAVEKGEELSCEERNLLSVAYKNVVGGQRAAWRVLSSIEQKSNEEGSEEKGPEVREYREKVETELQGVCDTVLGLLDSHLIKEAGDAESRVFYLKMKGDYYRYLAEVATGDDKKRIIDSARSAYQEAMDISKKEMPPTNPIRLGLALNFSVFHYEIANSPEEAISLAKTTFDEAMADLHTLSEDSYKDSTLIMQLLRDNLTLWTADNAGEEGGEAPQEPQS
modifications: phosphorylated HSPB6 peptide
Kd (HSPB6 phosphopeptide): 990 nM

B2: PPARγ (protein)
chain: MGETLGDSPIDPESDSFTDTLSANISQEMTMVDTEMPFWPTNFGISSVDLSVMEDHSHSFDIKPFTTVDFSSISTPHYEDIPFTRTDPVVADYKYDLKLQEYQSAIKVEPASPPYYSEKTQLYNKPHEEPSNSLMAIECRVCGDKASGFHYGVHACEGCKGFFRRTIRLKLIYDRCDLNCRIHKKSRNKCQYCRFQKCLAVGMSHNAIRFGRMPQAEKEKLLAEISSDIDQLNPESADLRALAKHLYDSYIKSFPLTKAKARAILTGKTTDKSPFVIYDMNSLMMGEDKIKFKHITPLQEQSKEVAIRIFQGCQFRSVEAVQEITEYAKSIPGFVNLDLNDQVTLLKYGVHEIIYTMLASLMNKDGVLISEGQGFMTREFLKSLRKPFGDFMEPKFEFAVKFNALELDDSDLAIFIAVIILSGDRPGLLNVKPIEDIQDNLLQALELQLKLNHPESSQLFAKLLQKMTDLRQIVTEHVQLLQVIKKTETDMSLHPLLQEIYKDLY
Kd [1]: 647 nM
Kd [2]: > 10000 nM
